Test results taken from article doi:10.1101/695502 (bioRxiv, 2019).
Like-named read-outs stand apart in the source and are kept apart here. One block for each molecule: values may come before it.

Key:
[1] = biological target: bacterially produced mm PCDH15 EC9-MAD12 (Mus musculus); assay: SEC-SAXS
[2] = biological target: hs PCDH15 EC1-3 G16D/N369D/Q370N (Homo sapiens)
[3] = biological target: mm PCDH15 EC1-MAD12 CD1-1 (Mus musculus); assay: SEC-MALS
[4] = biological target: mm PCDH15 EC1-MAD12 CD1-1 (Mus musculus); assay: SEC-MALS; remark: listed apart in the source
[5] = biological target: mm PCDH15 EC9-MAD12 (mammalian-expressed, glycosylated) (Mus musculus); assay: SEC-MALS
AUC = biological target: the molecule itself; assay: AUC

Molecule: bacterially produced mm PCDH15 EC9-MAD12 (domain or fragment)
- stoichiometry N [1]: 2

Molecule: mm PCDH15 EC1-MAD12 CD1-1 (domain or fragment)
- stoichiometry N [3]: 2
- stoichiometry N [4]: 2

B1: hs PCDH15 EC2-3 WT (domain or fragment, Homo sapiens)
chain: NSPTFKHESYYATVNELTPVGTTIFTGFSGDNGATDIDDGPNGQIEYVIQYNPDDPTSNDTFEIPLMLTGNIVLRKRLNYEDKTRYFVIIQANDRAQNLNERRTTTTTLTVDVLDGDDLGPMFLPCVLVPNTRDCRPLTYQAAIPELRTPEELNPIIVTPPIQAIDQDRNIQPPSDRPGILYSILVGTPEDYPRFFHMHPRTAELSLLEPVNRDFHQKFDLVIKAEQDNGHPLPAFAGLHIEILDENN
- Kd (AUC): < 1000 nM
- stoichiometry N (AUC): 2

Other lines, results leading:

- stoichiometry N [2]: 2
Molecule: hs PCDH15 EC1-3 G16D/N369D/Q370N (domain or fragment)

- stoichiometry N [5]: 2
Molecule: mm PCDH15 EC9-MAD12 (mammalian-expressed, glycosylated) (domain or fragment)
